The target in assay [1] is T1, GDP-tubulin (biotinylated α/β-tubulin heterodimer with GDP-bound β-tubulin) (UniProt Q71U36 1-451; Q9H4B7 1-451, biotinylated tubulin (chain and residues not stated) | biotinylated tubulin (chain and residues not stated)). The assay can be described thus: pull-down; supernatant depletion at equilibrium, same assay as for GTP-tubulin but with bead-bound GDP-tubulin; BuGZ construct (or mEGFP control) in solution; fit with Equation S2 for wild-type BuGZ. The following applies: both partners purified.

Assay [2] addresses GTP-tubulin (biotinylated α/β-tubulin heterodimer with GTP-bound β-tubulin) (UniProt Q71U36 1-451; Q9H4B7 1-451, biotinylated tubulin (chain and residues not stated) | biotinylated tubulin (chain and residues not stated)). In words: pull-down; supernatant depletion at equilibrium; varying concentrations of biotinylated GTP-tubulin on streptavidin-coated magnetic beads; BuGZ construct (or mEGFP control) in solution, BuGZ 1.19 μM; 4 °C; nocodazole present; depletion from the supernatant measured by immunoblotting. Particulars: both partners purified.

Assay [3] deals with taxol-stabilized microtubules (polymerized with a 1:10 mixture of biotin-labeled: unlabeled GTP-tubulin) (UniProt Q71U36 1-451; Q9H4B7 1-451, biotin on part of the tubulin (1:10 biotin-labeled: unlabeled; chain and residues not stated) | biotin on part of the tubulin (1:10 biotin-labeled: unlabeled; chain and residues not stated)). The assay can be described thus: pull-down; supernatant depletion at equilibrium; varying concentrations of biotin-containing taxol-stabilized microtubules on streptavidin-coated magnetic beads; BuGZ 1.19 μM; 4 °C; BuGZ left in the supernatant measured by quantitative immunoblotting; fit with a rectangular hyperbola (Equation S1). Particulars: both partners purified. (In general: Immunoblotting shows a protein as a band on a membrane.)

Assay [4] deals with T1, GDP-tubulin (biotinylated α/β-tubulin …). In words: cell-based or functional assay.

B1: Xenopus laevis BuGZ (Bub3-interacting and GLEBS motif-containing protein ZNF207), full-length wild type (natural protein)
chain: not shown
notes: BuGZ (ZNF207), Xenopus laevis, UniProt Q7ZXV8; full-length wild type; also called wild-type BuGZ; full-length BuGZ; source: purified
For the molecule B1, the figures for the dissociation constant Kd in assay [1], in assay [2] and in assay [3] were 45.3 nM, 0.477 µM and 9.45 µM, respectively. The “GTP α-32P incorporation into 100 μM GDP-tubulin at equilibrium (1:1 GTP:GDP, 1.19 μM BuGZ, room temperature), increase relative to the control condition” value in assay [4] turned out to be 60.1%.

B2: BuGZ-NTD (domain or fragment)
chain: not shown
notes: BuGZ (ZNF207), Xenopus laevis, UniProt Q7ZXV8; the N-terminal 92 amino acids, which contain the two zinc fingers; The discussion says the zinc finger domain of BuGZ can be produced in bacteria; also called BuGZ's N-terminal domain; N-terminal 92 amino acids of BuGZ; source: purified
As for B2, the dissociation constant (Kd) (usually the equilibrium constant for the complex coming apart) is 1470 nM in assay [1] and 7.14 µM in assay [2].

The values are drawn from paper PMC12302650, “A tubulin-binding protein that preferentially binds to GDP-tubulin and promotes GTP exchange” (The Journal of Biological Chemistry, 2025).
